B1: CA33, rabbit-mouse hybrid anti-aP2 monoclonal antibody (Rabbit Ab 909) (antibody, V domains shown)
VH: QSVEESGGRLVTPGTPLTLTCTVSGFSLSTYYMSWVRQAPGKGLEWIGIIYPSGSTYCASWAKGRFTISKASTTVDLKITSPTTEDTATYFCARPDNDGTSGYLSGFGLWGQGTLVTVSS
VL: DVVMTQTPASVSEPVGGTVTIKCQASEDISRYLVWYQQKPGQPPKRLIYKASTLASGVPSRFKGSGSGTDFTLTISDLECDDAATYYCQCTYGTYAGSFFYSFGGGTEVVVE
B2: H3, mouse anti-aP2 monoclonal antibody (H3 gL1/gH1) (antibody, V domains shown)
VH: QVQLQQPGAELVKPGASVKLSCKASGYTFTSNWITWVKQRPGQGLEWIGDIYPGSGSTTNNEKFKSKATLTVDTSSSTAYMQLSSLTSEDSAVYYCARLRGYYDYFDFWGQGTTLTVSS
VL: EVVLTQSPALMAASPGEKVTITCSVSSSISSSNLHWYQQKSETSPKPWIYGTSNLASGVPVRFSGSGSGTSYSLTISSMEAEDAATYYCQQWSHYPLTFGAGTKLELK

Key:
[1] = target: aP2 (species not stated in the passage) (Homo sapiens (Human)) (UniProt P15090); test: column head 'Affinity'; assay and aP2 species not printed on the sheet (the two other values of the column, 6.03 and 5.82 µM, equal the human aP2 averages of FIG. 31)
[2] = target: aP2 (species not stated in the passage) (Homo sapiens (Human)) (UniProt P15090); test: SPR and Octet ranking of H3 variants; value of the parent H3; species of aP2 not stated

| Binder | Kd [1] [µM] | Kd [2] [µM] |
| --- | --- | --- |
| B1 | 6.5 | – |
| B2 | – | < 0.07 |

Reference: patent publication US20220089705A1
